Assay [1] addresses T1, human interleukin 12 (p70 heterodimer of p35 and p40) (human, UniProt P29459 23-219; P29460 23-328).
T1 construct: Recombinant human IL-12; also called hIL-12; IL-12
T1 sequence (looked up) 1: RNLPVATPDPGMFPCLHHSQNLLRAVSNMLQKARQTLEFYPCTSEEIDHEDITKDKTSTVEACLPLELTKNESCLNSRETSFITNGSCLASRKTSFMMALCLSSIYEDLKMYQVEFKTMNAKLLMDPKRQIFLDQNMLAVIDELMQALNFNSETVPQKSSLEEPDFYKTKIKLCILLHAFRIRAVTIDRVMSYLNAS
T1 sequence (looked up) 2: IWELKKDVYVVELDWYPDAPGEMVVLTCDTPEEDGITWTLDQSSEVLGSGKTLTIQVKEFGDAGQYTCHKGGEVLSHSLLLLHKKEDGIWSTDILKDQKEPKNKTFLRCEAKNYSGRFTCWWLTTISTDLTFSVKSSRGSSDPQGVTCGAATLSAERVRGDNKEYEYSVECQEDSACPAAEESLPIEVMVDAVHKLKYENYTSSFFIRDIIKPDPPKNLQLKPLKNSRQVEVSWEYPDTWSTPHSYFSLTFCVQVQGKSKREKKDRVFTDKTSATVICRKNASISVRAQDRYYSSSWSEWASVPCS
In words: SPR (BIAcore), off-rate.

Assay [2] has as its target T2, human interleukin 12 (human, UniProt P29459 23-219; P29460 23-328).
T2 construct: heterodimer of p35 and p40 linked by a disulfide bridge; also called hIL-12; IL-12
T2 sequence (looked up) 1: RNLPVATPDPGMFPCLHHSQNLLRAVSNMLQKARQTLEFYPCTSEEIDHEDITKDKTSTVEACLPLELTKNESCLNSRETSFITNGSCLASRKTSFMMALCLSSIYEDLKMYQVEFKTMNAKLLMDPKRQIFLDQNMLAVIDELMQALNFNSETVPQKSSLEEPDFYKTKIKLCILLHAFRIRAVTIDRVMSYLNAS
T2 sequence (looked up) 2: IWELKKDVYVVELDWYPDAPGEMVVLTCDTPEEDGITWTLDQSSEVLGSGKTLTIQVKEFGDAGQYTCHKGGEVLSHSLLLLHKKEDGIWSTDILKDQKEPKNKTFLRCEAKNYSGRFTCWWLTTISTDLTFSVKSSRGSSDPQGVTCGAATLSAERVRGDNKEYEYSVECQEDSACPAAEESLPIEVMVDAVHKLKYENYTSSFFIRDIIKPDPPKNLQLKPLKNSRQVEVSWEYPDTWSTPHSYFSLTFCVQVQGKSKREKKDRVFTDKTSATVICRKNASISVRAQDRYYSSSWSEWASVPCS
In words: SPR (BIAcore).

B1: SEQ ID NO: 477 (Y61, T at L30) (antibody, V domains shown)
VH: QVQLVQSGGGVVQPGRSLRLSCAASGFTFSSYGMHWVRQAPGKGLEWVAFIRYDGSNKYYADSVKGRFTISRDNSKNTLYLQMKSLRAEDTAVYYCKTHGSHDNWGQGTMVTVSS
VL: SYVLTQPPSVSGTPGQRVTISCSGGRSNIGTNTVKWYQQLPGTAPKLLIYGNDQRPSGVPDRFSGSKSGTSASLAITGVQAEDEADYYCQSYDRGTHPALLFGTGTKVTVLG
In assay [1], B1 yielded an off-rate (koff) of 0.000226 s⁻¹.

B2: C4 (antibody, V domains shown)
VH: QVQLVQSGGGVVQPGRSLRLSCAASGFTFSSYGMHWVRQAPGKGLEWVAFIRYDGSNKYYADSVKGRFTISRDNSKNTLYLQMKSLRAEDTAVYYCKTHGSHDNWGQGTMVTVSS
VL: SYVLTQPPSVSGTPGQRVTISCSGGRSNIGSNTVKWYQQLPGTAPKLLIYGNDQRPSGVPDRFSGSKSGTSASLAITGVQAEDEADYYCQSYDRGTPNNSFFGTGTKVTVL
In assay [2], B2 gave a koff of 0.00323 s⁻¹.

B3: 136-9 (antibody, V domains shown)
VH: QVQLVQSGGGVVQPGRSLRLSCAASGFTFSSYGMHWVRQAPGKGLEWVAFIRYDGSNKYYADSVKGRFTISRDNSKNTLYLQMKSLRAEDTAVYYCTTHGSHDDWGQGTMVTVSS
VL: SYVLTQPPSVSGTPGQRVTISCSGGRSNIGSNTVKWYQQLPGTAPKLLIYGNDQRPSGVPDRFSGSKSGTSASLAITGVQAEDEADYYCQTYDISESGSRVFGTGTKVTVL
B3 yielded a koff in assay [2] of 0.0032 s⁻¹.

B4: 43-E9 (antibody, V domains shown)
VH: QVQLVQSGGGVVQPGRSLRLSCAASGFTFSSYGMHWVRQAPGKGLEWVAFIRYDGSNKYYADSVKGRFTISRDNSKNTLYLQMKSLRAEDTAVYYCKTHGSHDNWGQGTMVTVSS
VL: SYVLTQPPSVSGTPGQRVTISCSGGRSNIGSNTVKWYQQLPGTAPKLLIYGNDQRPSGVPDRFSGSKSGTSASLAITGVQAEDEADYYCQSYDRGTIPSIEFGTGTKVTVLG
For B4, in assay [2], the koff came to 0.0008 s⁻¹.

B5: B6 (antibody, V domains shown)
VH: QVQLVQSGGGVVQPGRSLRLSCAASGFTFSSYGMHWVRQAPGKGLEWVAFIRYDGSNKYYADSVKGRFTISRDNSKNTLYLQMKSLRAEDTAVYYCKTHGSHDNWGQGTMVTVSS
VL: SYVLTQPPSVSGTPGQRVTISCSGGRSNIGSNTVKWYQQLPGTAPKLLIYGNDQRPSGVPDRFSGSKSGTSASLAITGVQAEDEADYYCQSYDSGSLRRILFGTGTKVTVL
Turning to B5, the off-rate constant (koff) in assay [2] was 0.00758 s⁻¹.

B6: 43-E3 (antibody, V domains shown)
VH: QVQLVQSGGGVVQPGRSLRLSCAASGFTFSSYGMHWVRQAPGKGLEWVAFIRYDGSNKYYADSVKGRFTISRDNSKNTLYLQMKSLRAEDTAVYYCKTHGSHDNWGQGTMVTVSS
VL: SYVLTQPPSVSGTPGQRVTISCSGGRSNIGSNTVKWYQQLPGTAPKLLIYGNDQRPSGVPDRFSGSKSGTSASLAITGVQAEDEADYYCQSYDRGSHPAAEFGTGTKVTVLG
With B6, the off-rate (koff) in assay [2] was 0.0008 s⁻¹.

B7: C10 (antibody, V domains shown)
VH: QVQLVQSGGGVVQPGRSLRLSCAASGFTFSSYGMHWVRQAPGKGLEWVAFIRYDGSNKYYADSVKGRFTISRDNSKNTLYLQMKSLRAEDTAVYYCKTHGSHDNWGQGTMVTVSS
VL: SYVLTQPPSVSGTPGQRVTISCSGGRSNIGSNTVKWYQQLPGTAPKLLIYGNDQRPSGVPDRFSGSKSGTSASLAITGVQAEDEADYYCQSYDRGNSPIPTFGTGTKVTVLG
In turn, B7 showed a dissociation rate constant (koff) in assay [2] of 0.0031 s⁻¹. Compared with the last molecule, the koff is about 3.9-fold higher.

B8: SEQ ID NO: 487 (Y61, T at L31) (antibody, V domains shown)
VH: QVQLVQSGGGVVQPGRSLRLSCAASGFTFSSYGMHWVRQAPGKGLEWVAFIRYDGSNKYYADSVKGRFTISRDNSKNTLYLQMKSLRAEDTAVYYCKTHGSHDNWGQGTMVTVSS
VL: SYVLTQPPSVSGTPGQRVTISCSGGRSNIGSTTVKWYQQLPGTAPKLLIYGNDQRPSGVPDRFSGSKSGTSASLAITGVQAEDEADYYCQSYDRGTHPALLFGTGTKVTVLG
For B8, the koff in assay [1] is 0.000309 s⁻¹.

B9: SEQ ID NO: 489 (Y61, M at L31) (antibody, V domains shown)
VH: QVQLVQSGGGVVQPGRSLRLSCAASGFTFSSYGMHWVRQAPGKGLEWVAFIRYDGSNKYYADSVKGRFTISRDNSKNTLYLQMKSLRAEDTAVYYCKTHGSHDNWGQGTMVTVSS
VL: SYVLTQPPSVSGTPGQRVTISCSGGRSNIGSMTVKWYQQLPGTAPKLLIYGNDQRPSGVPDRFSGSKSGTSASLAITGVQAEDEADYYCQSYDRGTHPALLFGTGTKVTVLG
B9 gave an off-rate (koff) in assay [1] of 0.000174 s⁻¹. Compared with the last molecule, the koff is about 1.8-fold lower.

B10: SEQ ID NO: 481 (Y61, S at L31) (antibody, V domains shown)
VH: QVQLVQSGGGVVQPGRSLRLSCAASGFTFSSYGMHWVRQAPGKGLEWVAFIRYDGSNKYYADSVKGRFTISRDNSKNTLYLQMKSLRAEDTAVYYCKTHGSHDNWGQGTMVTVSS
VL: SYVLTQPPSVSGTPGQRVTISCSGGRSNIGSSTVKWYQQLPGTAPKLLIYGNDQRPSGVPDRFSGSKSGTSASLAITGVQAEDEADYYCQSYDRGTHPALLFGTGTKVTVLG
B10 gave a koff in assay [1] of 0.000392 s⁻¹.

B11: SEQ ID NO: 490 (Y61, I at L31) (antibody, V domains shown)
VH: QVQLVQSGGGVVQPGRSLRLSCAASGFTFSSYGMHWVRQAPGKGLEWVAFIRYDGSNKYYADSVKGRFTISRDNSKNTLYLQMKSLRAEDTAVYYCKTHGSHDNWGQGTMVTVSS
VL: SYVLTQPPSVSGTPGQRVTISCSGGRSNIGSITVKWYQQLPGTAPKLLIYGNDQRPSGVPDRFSGSKSGTSASLAITGVQAEDEADYYCQSYDRGTHPALLFGTGTKVTVLG
As to B11, the koff in assay [1] is 9.7e-05 s⁻¹.

B12: SEQ ID NO: 486 (Y61, Q at L31) (antibody, V domains shown)
VH: QVQLVQSGGGVVQPGRSLRLSCAASGFTFSSYGMHWVRQAPGKGLEWVAFIRYDGSNKYYADSVKGRFTISRDNSKNTLYLQMKSLRAEDTAVYYCKTHGSHDNWGQGTMVTVSS
VL: SYVLTQPPSVSGTPGQRVTISCSGGRSNIGSQTVKWYQQLPGTAPKLLIYGNDQRPSGVPDRFSGSKSGTSASLAITGVQAEDEADYYCQSYDRGTHPALLFGTGTKVTVLG
The molecule B12 registered a dissociation rate constant (koff) in assay [1] of 0.000292 s⁻¹.

B13: SEQ ID NO: 488 (Y61, G at L31) (antibody, V domains shown)
VH: QVQLVQSGGGVVQPGRSLRLSCAASGFTFSSYGMHWVRQAPGKGLEWVAFIRYDGSNKYYADSVKGRFTISRDNSKNTLYLQMKSLRAEDTAVYYCKTHGSHDNWGQGTMVTVSS
VL: SYVLTQPPSVSGTPGQRVTISCSGGRSNIGSGTVKWYQQLPGTAPKLLIYGNDQRPSGVPDRFSGSKSGTSASLAITGVQAEDEADYYCQSYDRGTHPALLFGTGTKVTVLG
Regarding B13, the koff in assay [1] worked out at 0.000366 s⁻¹.

B14: SEQ ID NO: 479 (Y61, D at L31) (antibody, V domains shown)
VH: QVQLVQSGGGVVQPGRSLRLSCAASGFTFSSYGMHWVRQAPGKGLEWVAFIRYDGSNKYYADSVKGRFTISRDNSKNTLYLQMKSLRAEDTAVYYCKTHGSHDNWGQGTMVTVSS
VL: SYVLTQPPSVSGTPGQRVTISCSGGRSNIGSDTVKWYQQLPGTAPKLLIYGNDQRPSGVPDRFSGSKSGTSASLAITGVQAEDEADYYCQSYDRGTHPALLFGTGTKVTVLG
In the case of B14, in assay [1], the off-rate (koff) turned out to be 0.00058 s⁻¹.

B15: SEQ ID NO: 482 (Y61, Y at L31) (antibody, V domains shown)
VH: QVQLVQSGGGVVQPGRSLRLSCAASGFTFSSYGMHWVRQAPGKGLEWVAFIRYDGSNKYYADSVKGRFTISRDNSKNTLYLQMKSLRAEDTAVYYCKTHGSHDNWGQGTMVTVSS
VL: SYVLTQPPSVSGTPGQRVTISCSGGRSNIGSYTVKWYQQLPGTAPKLLIYGNDQRPSGVPDRFSGSKSGTSASLAITGVQAEDEADYYCQSYDRGTHPALLFGTGTKVTVLG
Turning to B15, the koff in assay [1] came out at 0.000357 s⁻¹.

B16: SEQ ID NO: 478 (Y61, P at L30) (antibody, V domains shown)
VH: QVQLVQSGGGVVQPGRSLRLSCAASGFTFSSYGMHWVRQAPGKGLEWVAFIRYDGSNKYYADSVKGRFTISRDNSKNTLYLQMKSLRAEDTAVYYCKTHGSHDNWGQGTMVTVSS
VL: SYVLTQPPSVSGTPGQRVTISCSGGRSNIGPNTVKWYQQLPGTAPKLLIYGNDQRPSGVPDRFSGSKSGTSASLAITGVQAEDEADYYCQSYDRGTHPALLFGTGTKVTVLG
Turning to B16, in assay [1], the koff amounted to 0.00025 s⁻¹. This koff and that of the molecule before are within 1.5-fold of each other.

B17: SEQ ID NO: 480 (Y61, E at L31) (antibody, V domains shown)
VH: QVQLVQSGGGVVQPGRSLRLSCAASGFTFSSYGMHWVRQAPGKGLEWVAFIRYDGSNKYYADSVKGRFTISRDNSKNTLYLQMKSLRAEDTAVYYCKTHGSHDNWGQGTMVTVSS
VL: SYVLTQPPSVSGTPGQRVTISCSGGRSNIGSETVKWYQQLPGTAPKLLIYGNDQRPSGVPDRFSGSKSGTSASLAITGVQAEDEADYYCQSYDRGTHPALLFGTGTKVTVLG
B17: the koff in assay [1] is 0.000384 s⁻¹.

B18: SEQ ID NO: 483 (Y61, H at L31) (antibody, V domains shown)
VH: QVQLVQSGGGVVQPGRSLRLSCAASGFTFSSYGMHWVRQAPGKGLEWVAFIRYDGSNKYYADSVKGRFTISRDNSKNTLYLQMKSLRAEDTAVYYCKTHGSHDNWGQGTMVTVSS
VL: SYVLTQPPSVSGTPGQRVTISCSGGRSNIGSHTVKWYQQLPGTAPKLLIYGNDQRPSGVPDRFSGSKSGTSASLAITGVQAEDEADYYCQSYDRGTHPALLFGTGTKVTVLG
For B18, the koff in assay [1] came to 0.000315 s⁻¹. The koff values of the last two molecules are within 1.5-fold of each other.

B19: SEQ ID NO: 484 (Y61, K at L31) (antibody, V domains shown)
VH: QVQLVQSGGGVVQPGRSLRLSCAASGFTFSSYGMHWVRQAPGKGLEWVAFIRYDGSNKYYADSVKGRFTISRDNSKNTLYLQMKSLRAEDTAVYYCKTHGSHDNWGQGTMVTVSS
VL: SYVLTQPPSVSGTPGQRVTISCSGGRSNIGSKTVKWYQQLPGTAPKLLIYGNDQRPSGVPDRFSGSKSGTSASLAITGVQAEDEADYYCQSYDRGTHPALLFGTGTKVTVLG
As to B19, in assay [1], the off-rate (koff) turned out to be 0.000331 s⁻¹.

(Values after patent publication US20120219562A1 (AbbVie / Abbott, published 2012).)
